Consider one molecule from article PMC6077248.

The target of this assay is Venus-Gβ2γ7 (Venus 156-239-Gβ2 with Venus 1-155-Gγ7), P62879-1;O60262. As to the kind of experiment: BRET (suppression of GRK3ct-Gβ2γ7 BRET by competing Gαolf). The following applies: chain shown with the change; HEK293T/17 cells; parent: est. 100; read off a plot. (In general: Bioluminescence resonance energy transfer reports proximity on the nanometre scale.)

B1: G protein α subunit Gαolf, wild type, P38405 P102_V104del (protein)
chain: MGCLGGNSKTTEDQGVDEKERREANKKIEKQLQKERLAYKATHRLLLLGAGESGKSTIVKQMRILHVNGFNPEEKKQKILDIRKNVKDAIVTIVSAMSTIIPLANPENQFRSDYIKSIAPITDFEYSQEFFDHVKKLWDDEGVKACFERSNEYQLIDCAQYFLERIDSVSLVDYTPTDQDLLRCRVLTSGIFETRFQVDKVNFHMFDVGGQRDERRKWIQCFNDVTAIIYVAACSSYNMVIREDNNTNRLRESLDLFESIWNNRWLRTISIILFLNKQDMLAEKVLAGKSKIEDYFPEYANYTVPEDATPDAGEDPKVTRAKFFIRDLFLRISTATGDGKHYCYPHFTCAVDTENIRRVFNDCRDIIQRMHLKQYELL
In the case of B1, the percent of parent was found to be 29%.
